Legend:
[1] = biological target: HIV-1 myristoylated matrix (MA) A45E mutant protein (HIV-1 (pNL4-3 strain)); experiment: AUC; sedimentation equilibrium, 22,000, 26,000 and 30,000 rpm, 20 °C, pH 5.5, 50 mM sodium phosphates, 100 mM NaCl, 2 mM TCEP; global fit to a monomer–trimer equilibrium model (monomers to trimer), monomer mass 15.6 kDa and n = 3 fixed
[2] = biological target: HIV-1 myristoylated matrix (MA) L75G mutant protein (HIV-1 (pNL4-3 strain)); experiment: as above
[3] = biological target: HIV-1 myristoylated matrix (MA) Q63R mutant protein (HIV-1 (pNL4-3 strain)); experiment: as above
[4] = biological target: HIV-1 myristoylated matrix (MA) T70R mutant protein (HIV-1 (pNL4-3 strain)); experiment: as above
[5] = biological target: HIV-1 myristoylated matrix (MA) protein, wild type (HIV-1 (pNL4-3 strain)); experiment: as above
[6] = biological target: HIV-1 unmyristoylated matrix Q63R mutant protein (HIV-1 (pNL4-3 strain)); experiment: crystal structure; hanging-drop vapor diffusion, 40% PEG 400, 0.1 M sodium acetate (pH 4), 50 mM lithium sulfate; protein at 20 mg/ml; two crystal forms; molecular replacement with PDB 1HIW

HIV-1 myristoylated matrix (MA) A45E mutant protein (natural protein)
Ka [1]: 2.5e+07 M⁻¹
stoichiometry N [1]: 3

HIV-1 myristoylated matrix (MA) L75G mutant protein (natural protein)
Ka [2]: 1e+07 M⁻¹
stoichiometry N [2]: 3

HIV-1 myristoylated matrix (MA) Q63R mutant protein (natural protein)
Ka [3]: 2e+07 M⁻¹
stoichiometry N [3]: 3

HIV-1 myristoylated matrix (MA) T70R mutant protein (natural protein)
Ka [4]: 2.8e+07 M⁻¹
stoichiometry N [4]: 3

HIV-1 myristoylated matrix (MA) protein, wild type (natural protein)
Ka [5]: 2e+07 M⁻¹
stoichiometry N [5]: 3

HIV-1 unmyristoylated matrix Q63R mutant protein (natural protein)
stoichiometry N [6]: 3
